Test results published in patent US10689452 (UNIVERSIT T STUTTGART, dated 2020).

Assays:
[1] = biological target: T1, human TNFR1-Fc fusion protein (human, UniProt P19438 29-211); test: ELISA, human TNFR1-Fc
T1 construct: range 29-211; Made in stably transfected HEK293 cells; coated on ELISA plates or immobilised on QCM chips; also called huTNFR1-Fc; human TNFR-Fc; not shown: Fc part from vector pSecTagL1-Fc
T1 sequence (looked up): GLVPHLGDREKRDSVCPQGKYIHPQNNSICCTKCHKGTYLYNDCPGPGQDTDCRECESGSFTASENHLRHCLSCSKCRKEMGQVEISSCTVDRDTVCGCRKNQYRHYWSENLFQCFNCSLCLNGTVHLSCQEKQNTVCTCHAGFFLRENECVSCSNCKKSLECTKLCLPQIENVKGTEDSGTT

[2] = biological target: T2, human TNFR1 on cells (HT1080, HeLa, Kym-1) (human, UniProt P19438 30-455); test: cell-based or functional assay
T2 sequence (looked up): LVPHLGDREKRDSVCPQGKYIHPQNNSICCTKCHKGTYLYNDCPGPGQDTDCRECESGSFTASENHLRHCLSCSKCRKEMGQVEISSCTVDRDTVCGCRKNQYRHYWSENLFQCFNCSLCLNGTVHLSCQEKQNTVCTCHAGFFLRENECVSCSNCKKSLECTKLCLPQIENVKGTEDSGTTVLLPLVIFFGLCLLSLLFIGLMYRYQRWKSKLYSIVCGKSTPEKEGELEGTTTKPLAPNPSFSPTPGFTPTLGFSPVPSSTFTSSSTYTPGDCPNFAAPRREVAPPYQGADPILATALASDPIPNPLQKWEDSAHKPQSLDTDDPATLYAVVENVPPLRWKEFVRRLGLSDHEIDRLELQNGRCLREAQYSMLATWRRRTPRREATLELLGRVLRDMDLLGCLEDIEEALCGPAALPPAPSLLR

[3] = biological target: T1, human TNFR1-Fc fusion protein; test: QCM, human TNFR1-Fc, moderate receptor density (86 Hz), KD1
Procedure: (§1) Real-time binding dynamics in protein-protein interactions were determined by quartz crystal microbalance measurements (A-100 C-Fast or Cell-200 C-Fast, Attana, Stockholm, Sweden). One of the binding partners (ligand, e.g. TNFR1-Fc) was chemically immobilized on a carboxyl sensor chip according to the manufacturer's protocol at different densities (nearly 200 Hz in the case of saturating conditions to confirm previously published results and 50-100 Hz, in particular at about 50 Hz, to establish conditions of lower receptor density, better resembling the situation on the cellular surface). Binding experiments were performed with samples (analyte) diluted in PBST (PBS, 0.1% Tween 20) at pH 7.4 with a flow rate of 25 µl/min at 37° C. The chip was regenerated with 25 µl 5 mM NaOH or 20 mM glycine, pH 2.0. Every third measurement, an injection of running buffer was measured which was subtracted from the binding curve. Data were collected using the software provided by Attana for the particular device and analyzed by Attaché Office Evaluation software (Attana, Stockholm, Sweden) and TraceDrawe (ridgview instruments, Vange, Sweden).

[4] = biological target: T1, human TNFR1-Fc fusion protein; test: QCM, human TNFR1-Fc, moderate receptor density (86 Hz), kon1
Procedure: as §1

[5] = biological target: T1, human TNFR1-Fc fusion protein; test: QCM, human TNFR1-Fc, moderate receptor density (86 Hz), koff1
Procedure: as §1

[6] = biological target: T1, human TNFR1-Fc fusion protein; test: ELISA on coated huTNFR1-Fc, antibody titrated, signal as Binding [%]
Procedure: FIG. 13. […] Increasing concentrations were tested for their binding to huTNFR1-Fc in ELISA (n=3, mean±SD).
(§2) Microtiter plates were coated with 100 µl of the indicated protein (1 µg/ml in PBS, see Table 3.3) and incubated at 4° C. over night. The residual binding sites were blocked with 2% MPBS (skim milk in PBS, 200 µl per well) at room temperature for 2 hours and subsequently washed twice with PBS. 100 µl of the samples diluted in 2% MPBS were incubated at room temperature for 1 hour prior to the last incubation step with 100 µl of the HRP conjugated detection antibodies in 2% MPBS. In the case of competition experiments, both analyzed protein samples were prepared individually (either titrated or diluted to a single concentration) and mixed before they were applied to the plate. Bound protein was detected with 100 µl TMB substrate solution, the HRP-reaction was stopped by the addition of 50 µl 1 M H2SO4 and the absorption at the wavelength of 450 nm was measured using the Infinite microtiter plate reader (TECAN, Maennedorf, Switzerland). Between each incubation step and in advance of the detection, the plates were washed three times with PBST and twice with PBS.

[7] = biological target: T3, human TNFR2-Fc fusion protein (human, UniProt P20333 23-257); test: ELISA on coated receptor-Fc fusion proteins, one antibody concentration (not given on the sheet)
T3 construct: whole entry named; also called huTNFR2
T3 sequence (looked up): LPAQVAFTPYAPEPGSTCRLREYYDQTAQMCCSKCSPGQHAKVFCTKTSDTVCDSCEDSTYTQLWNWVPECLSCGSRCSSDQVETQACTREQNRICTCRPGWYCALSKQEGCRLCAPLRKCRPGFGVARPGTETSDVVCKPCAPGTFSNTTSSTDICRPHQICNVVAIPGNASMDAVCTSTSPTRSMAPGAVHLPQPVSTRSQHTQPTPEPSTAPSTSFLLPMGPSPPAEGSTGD
Procedure: (§3) FIG. 12. Species selectivity of scFv13.7 derivatives. […] Presented are mean and SD of two individual experiments.
as §2

[8] = biological target: T4, mouse TNFR1-Fc fusion protein (mouse, UniProt P25118 30-212); test: as above
T4 construct: range 30-212; also called moR1; not shown: Fc part from vector pSecTagL1-Fc
T4 sequence (looked up): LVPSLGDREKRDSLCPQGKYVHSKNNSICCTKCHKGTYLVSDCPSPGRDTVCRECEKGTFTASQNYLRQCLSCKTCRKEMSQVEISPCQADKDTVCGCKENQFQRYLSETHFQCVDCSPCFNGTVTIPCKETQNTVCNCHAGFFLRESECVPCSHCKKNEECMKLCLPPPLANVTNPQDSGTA
Procedure: as §3, §2

[9] = biological target: T5, mouse TNFR2-Fc fusion protein (mouse, UniProt P25119 23-258); test: as above
T5 construct: range 23-258; not shown: Fc part from vector pSecTagL1-Fc
T5 sequence (looked up): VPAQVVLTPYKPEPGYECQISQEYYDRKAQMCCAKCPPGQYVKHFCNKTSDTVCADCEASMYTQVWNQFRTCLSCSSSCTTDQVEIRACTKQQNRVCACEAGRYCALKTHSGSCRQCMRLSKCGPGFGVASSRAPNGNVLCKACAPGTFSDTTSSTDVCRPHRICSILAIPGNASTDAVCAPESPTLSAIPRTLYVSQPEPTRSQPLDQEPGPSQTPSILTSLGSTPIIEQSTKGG
Procedure: as §3, §2

[10] = biological target: T2, human TNFR1 on cells (HT1080, HeLa, …); test: cell-based or functional assay; remark: listed apart in the source
[11] = biological target: T1, human TNFR1-Fc fusion protein; test: QCM, moderate receptor density (86 Hz)
Procedure: as §1

[12] = biological target: T1, human TNFR1-Fc fusion protein; test: ELISA on coated human TNFR1-Fc, reference curve next to Fab13.7PEG
Procedure: as §2

[13] = biological target: T1, human TNFR1-Fc fusion protein; test: ELISA on coated human TNFR1-Fc, reference curve next to Fv13.7-Fckih0DS
Procedure: as §2

[14] = biological target: T1, human TNFR1-Fc fusion protein; test: QCM
[15] = biological target: T1, human TNFR1-Fc fusion protein; test: QCM, human TNFR1-Fc, high receptor density (184 Hz), OneToOne analysis, KD2
Procedure: as §1, with “curve.” for “curve. Data were collected using the software provided by Attana for the particular device and analyzed by Attaché Office Evaluation software (Attana, Stockholm, Sweden) and TraceDrawe (ridgview instruments, Vange, Sweden).”

[16] = biological target: T1, human TNFR1-Fc fusion protein; test: QCM, human TNFR1-Fc, high receptor density (184 Hz), OneToOne analysis, kon2
Procedure: as §1, with “curve.” for “curve. Data were collected using the software provided by Attana for the particular device and analyzed by Attaché Office Evaluation software (Attana, Stockholm, Sweden) and TraceDrawe (ridgview instruments, Vange, Sweden).”

[17] = biological target: T1, human TNFR1-Fc fusion protein; test: QCM, human TNFR1-Fc, high receptor density (184 Hz), OneToOne analysis, koff2
Procedure: as §1, with “curve.” for “curve. Data were collected using the software provided by Attana for the particular device and analyzed by Attaché Office Evaluation software (Attana, Stockholm, Sweden) and TraceDrawe (ridgview instruments, Vange, Sweden).”

| Binder | IC50, Cytotox (nM); inhibition of Kym-1 cell death by 0.01 nM TNF [2] [nM] | IC50, IL-6 (nM); inhibition of the response of HeLa cells to 0.1 nM TNF [2] [nM] | IC50, IL-8 (nM); inhibition of the response of HT1080 cells to 0.1 nM TNF [2] [nM] | IL-6 release (pg/ml), HeLa cells [2] [pg/mL] | IL-8 release (pg/ml), HT1080 cells [2] [pg/mL] | Kd [3] [nM] | kon [4] [M⁻¹ s⁻¹] | koff [5] [s⁻¹] | EC50 [1] [nM] | also measured |
| --- | --- | --- | --- | --- | --- | --- | --- | --- | --- | --- |
| FabATROSAB (Fab, V domains shown, Fab of ATROSAB; also called Fab fragment of ATROSAB; ATROSAB Fab) VH: QVQLVQSGAEVKKPGSSVKVSCKASGYTFTDFYINWVRQAPGQGLEWIGEIYPYSGHAYYNEKFKARVTITADKSTSTAYMELSSLRSEDTAVYYCARWDFLDYWGQGTTVTVSS VL: DIVMTQSPLSLPVTPGEPASISCRSSQSLLHSNGNTYLHWYLQKPGQSPQLLIYTVSNRFSGVPDRFSGSGSGTDFTLKISRVEAEDVGVYYCSQSTHVPYTFGGGTKVEIKR | 37 | 145 | 151 | 179 | 128 | 30 | 501000 | 0.015 |  | fold weaker binding (higher EC50) compared with Fab13.7 [1]: 8.7 fold; EC50 (read off the curve) [6]: ~10 nM; binding result [7]: no binding; binding result [8]: no binding; binding result [9]: no binding |
| Fab13.7 (Fab, V domains shown, also called Fab-FRK13.7; Fab3.7) VH: HVQLVQSGAEVKKPGSSVKVSCKASGYTFTDFYINWVRQAPGQGLEWIGEIVPSQGEAKYNDKFKARVTITADKSTSTAYMELSSLRSEDTAVYYCARWDFLDYWGQGTTVTVSS VL: DVQMTQSPSSLSASVGDRVTITCRSSQSLLHSNGNTYLHWYQQKPGKAPKLLIYTVSNRFSGVPSRFSGSGSGTDFTLTISSLQPEDFATYYCSQSTHVPYTFGGGTKVEIKR | 4.7 | 31 | 19 | 101 | 138 | 1.6 | 470000 | 0.000732 | 1.4 | IC50 (read off the curve), inhibition of the interleukin release induced by 0.1 nM TNF (axis: IL-6 release [%]) [10]: ~20 nM; fold stronger affinity than FabATR [11]: 19 fold; EC50 (read off the curve) [12]: ~2 nM; EC50 (read off the curve) [13]: ~0.6 nM |
| IgG13.7 (antibody, V domains shown, Made transiently in HEK293T cells; also called IgG-FRK13.7) VH: HVQLVQSGAEVKKPGSSVKVSCKASGYTFTDFYINWVRQAPGQGLEWIGEIVPSQGEAKYNDKFKARVTITADKSTSTAYMELSSLRSEDTAVYYCARWDFLDYWGQGTTVTVSS VL: DVQMTQSPSSLSASVGDRVTITCRSSQSLLHSNGNTYLHWYQQKPGKAPKLLIYTVSNRFSGVPSRFSGSGSGTDFTLTISSLQPEDFATYYCSQSTHVPYTFGGGTKVEIK |  |  |  | 1450 | 4230 |  |  |  | 0.76 | fold improvement of KD compared with ATROSAB (bivalent binding) [14]: 3.5 fold; Kd [15]: 0.11 nM; kon [16]: 535000 M⁻¹ s⁻¹; koff [17]: 5.92e-05 s⁻¹ |
